One may read the EC50 as the midpoint of the concentration-response curve. Lower therefore signals greater potency. By Cmax is commonly meant the highest concentration seen after dosing. One may read the MRT as the average time that molecules of a dose stay in the body. By Tmax is commonly meant the time at which the peak concentration occurs.

The subject of series [1] is Treg cells. Kind of series: P-STAT5 activation in Treg cells of human PBMCs (flow cytometry). As to conditions: P-STAT5 MFI in CD3+/CD4+/CD25+ cells of human PBMCs, 30 min stimulation. It counts as cell-based. The procedure: In the example, the activation effect of each mutant prepared in Example 6 on P-STAT5 in different cell subsets (Tregs, CD8+T cells, NK cells) from human PBMCs (Miaoshun Biotechnology) was detected.
Human PBMC cells were thawed and resuspended to 1.5×10^6 cells/ml in RPMI1640 medium containing 10% FBS. 100 µl was added to each well of a V-bottom 96-well culture plate. Each IL-2 mutant prepared in Example 6 was diluted 10-fold in series: 1000 nM was used as the working concentration for the first well, and then 100 µl/well of each serial dilution was added to each cultured cell, stimulated at 37°C for 30 min, and the reaction was terminated on ice. The cells were treated with a commercial fixative and permeabilization agent (BD biosciences 558049 & 558050), and stained with antibodies against CD3, CD4, CD25, and CD8 according to conventional methods. P-STAT5 antibody staining was also performed (Table 7) to detect the mean fluorescence intensity (MFI) of P-STAT5 in CD3+/CD4+/CD25+ (Treg cells) and CD8+/CD3+ cells ([…]) by flow cytometry.
Background: A flow cytometer gives signals particle by particle.

Series [2] deals with Treg cells. Kind of series: Pharmacodynamic (PD) study in mice, peripheral Treg cells. The series is classed as in vivo, Balb/c mice. As to conditions: 1 mg/kg s.c. single administration. Here is the method:
In this example, the pharmacodynamics (PD) of each IL-2 mutant obtained in Example 6 was studied in mice after a single administration to mice. SPF grade Balb/c mice were purchased and randomly divided into groups according to body weight, with 3 mice in each group. Drug administration started on the day of grouping. The dosing and grouping information is shown in Table 9, where G1-G5 were administered once, G6 and G7 were administered once a day, for a total of three doses. 30 µl of blood was taken from each group of mice, for PEGylated IL2 mutants and the negative control, blood was collected on day 0 (pre-administration), day 2, 3, 4, 5, 6 and 7 (only for G3, G4 and G5), and for IL2 and IL2-N88R, blood was collected on day 0 (pre-administration), day 1, 2 and 3. The number of each cell subpopulation was measured by flow cytometry. Antibodies against the staining marker used in flow cytometry are shown in Table 10, and the gating settings are shown in Table 11. Table 9 Dosing and grouping table for single-dose PD study in mice

The subject of series [3] is Treg cells. Put plainly: Pharmacodynamic study in cynomolgus monkeys, peripheral Treg cells. The series is classed as in vivo. As to conditions: doses ≤400 µg/kg. From the text:
For information on administration and grouping, see Table 14.

For series [4] the following is noted: mouse, in vivo, sc, 1 mg/kg.
Method: (§1) Balb/c mice were purchased, with 4 mice in each group. Each IL-2 mutant to be tested was administered subcutaneously once at a dose of 1 mg/kg. Blood was collected from the orbit at different time points after administration, and the plasma was separated and the plasma drug concentration was detected by ELISA. The main pharmacokinetic parameters were calculated, and C-T curve was plotted.
Series [5] can be described thus: Effects on body weight and physiological characteristics of mice. As to conditions: 1 mg/kg s.c. once every three days, three times.
Method: SPF grade Balb/c mice were purchased, with 3 mice in each group. Administration was started on the day of grouping. The test substance or PBS (negative control group) was administered subcutaneously at a dose of 1 mg/kg, once every three days, for a total of three times. The mice were weighed before each administration and three days after the third administration .
Series [6] can be described thus: Pharmacokinetic study in mice, single administration, plasma concentration by ELISA. As to conditions: 1 mg/kg s.c. single administration. On the technique in general: In an ELISA, binding on a coated surface is turned into a signal by an enzyme label.
Method: as §1

B1: 80K-1PEG-IL2-N88R-N77C: IL-2 mutant N88R, N77C, conjugation site 77, PEG molecular weight 80kD (conjugate)
chain: APTSSSTKKTQLQLEHLLLDLQMILNGINNYKNPKLTRMLTFKFYMPKKATELKHLQCLEEELKPLEEVLNLAQSKC(PEG 80 kDa)FHLRPRDLISRINVIVLELKGSETTFMCEYADETATIVEFLNRWITFSQSIISTLT
On to B1, for which it took 29.8 nM to reach a half-maximal effect in the series on Treg cells [1] (EC50). For the same molecule, in the series with Treg cells [2], the “activation peak of Treg proportion, time” value amounted to 6 days and the “increase in Treg proportion at peak” value is recorded as “about 15 fold”. Further, the “activation and proliferation of peripheral blood Treg cells” value in the series on Treg cells [3] is “clear activation and proliferation”. Moreover, in series [4], the T1/2 is 25.23 ± 3.45 h. In series [5], the “toxic side effects on mice” value is “less toxic side effects” and the “visual observation of the mice” value is listed as “in good condition”. Further, in series [5] (three days after the third dose), the “body weight compared with negative control” value was “not significantly different from that of the negative control”. In series [6], this molecule showed an AUC inf of 463.63062 ± 37.7282 µg·h/mL, an AUClast of 437.8594 ± 41.0906 µg·h/mL, a CL of 2.17±0.18 and a Cmax of 8418.72 ± 491.4 ng/mL. In addition, in series [6], the MRT is 40.08 ± 2.1 h, the Tmax turned out to be 24 h, the mean half-life is 25.23 h and the “mean residence time (MRT)” value is 40.08 h.

(Values after patent publication EP4631972A1, “SITE-SPECIFIC COUPLED PEGYLATED INTERLEUKIN-2 MUTANT WITH RECEPTOR AFFINITY PREFERENCE AND USE THEREOF” (priority 2022, dated 2024).)
